Data: patent publication US20140162950A1

Target: integrin α3β1 on gastric cancer cells (MKN45, MKN45/CTGF, AGS) (human) (UniProt P26006)
Assay: cell-based or functional assay

Chain of UniProt P26006 (P26006 33-1051, chain 1 of 2): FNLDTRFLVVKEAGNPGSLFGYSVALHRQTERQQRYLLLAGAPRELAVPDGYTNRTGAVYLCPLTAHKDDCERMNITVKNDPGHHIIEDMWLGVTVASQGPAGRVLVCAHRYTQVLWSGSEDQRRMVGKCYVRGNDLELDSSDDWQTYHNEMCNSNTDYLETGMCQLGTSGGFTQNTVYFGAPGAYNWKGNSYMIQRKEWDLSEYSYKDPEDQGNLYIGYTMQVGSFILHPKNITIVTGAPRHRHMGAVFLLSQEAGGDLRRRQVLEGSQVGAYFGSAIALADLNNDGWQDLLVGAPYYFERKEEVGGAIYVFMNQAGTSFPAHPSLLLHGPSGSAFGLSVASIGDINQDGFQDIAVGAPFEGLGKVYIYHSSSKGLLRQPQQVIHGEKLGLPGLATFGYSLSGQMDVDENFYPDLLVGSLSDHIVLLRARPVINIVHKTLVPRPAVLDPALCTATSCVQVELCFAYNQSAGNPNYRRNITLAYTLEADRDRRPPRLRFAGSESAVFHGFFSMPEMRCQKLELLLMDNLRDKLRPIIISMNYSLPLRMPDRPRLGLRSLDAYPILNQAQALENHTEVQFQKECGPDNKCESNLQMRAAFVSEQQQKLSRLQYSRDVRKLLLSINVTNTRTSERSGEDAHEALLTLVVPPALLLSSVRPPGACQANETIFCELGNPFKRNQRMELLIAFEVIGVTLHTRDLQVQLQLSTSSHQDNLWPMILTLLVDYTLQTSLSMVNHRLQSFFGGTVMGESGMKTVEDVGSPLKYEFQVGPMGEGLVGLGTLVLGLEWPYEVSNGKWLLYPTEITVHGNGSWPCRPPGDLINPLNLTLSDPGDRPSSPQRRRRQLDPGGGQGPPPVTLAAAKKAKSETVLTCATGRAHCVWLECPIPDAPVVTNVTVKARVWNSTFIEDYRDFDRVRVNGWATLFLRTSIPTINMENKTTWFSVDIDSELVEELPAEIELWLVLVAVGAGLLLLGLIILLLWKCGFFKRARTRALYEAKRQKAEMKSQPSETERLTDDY
Chain of UniProt P26006 (P05556 21-798, chain 2 of 2, further chain): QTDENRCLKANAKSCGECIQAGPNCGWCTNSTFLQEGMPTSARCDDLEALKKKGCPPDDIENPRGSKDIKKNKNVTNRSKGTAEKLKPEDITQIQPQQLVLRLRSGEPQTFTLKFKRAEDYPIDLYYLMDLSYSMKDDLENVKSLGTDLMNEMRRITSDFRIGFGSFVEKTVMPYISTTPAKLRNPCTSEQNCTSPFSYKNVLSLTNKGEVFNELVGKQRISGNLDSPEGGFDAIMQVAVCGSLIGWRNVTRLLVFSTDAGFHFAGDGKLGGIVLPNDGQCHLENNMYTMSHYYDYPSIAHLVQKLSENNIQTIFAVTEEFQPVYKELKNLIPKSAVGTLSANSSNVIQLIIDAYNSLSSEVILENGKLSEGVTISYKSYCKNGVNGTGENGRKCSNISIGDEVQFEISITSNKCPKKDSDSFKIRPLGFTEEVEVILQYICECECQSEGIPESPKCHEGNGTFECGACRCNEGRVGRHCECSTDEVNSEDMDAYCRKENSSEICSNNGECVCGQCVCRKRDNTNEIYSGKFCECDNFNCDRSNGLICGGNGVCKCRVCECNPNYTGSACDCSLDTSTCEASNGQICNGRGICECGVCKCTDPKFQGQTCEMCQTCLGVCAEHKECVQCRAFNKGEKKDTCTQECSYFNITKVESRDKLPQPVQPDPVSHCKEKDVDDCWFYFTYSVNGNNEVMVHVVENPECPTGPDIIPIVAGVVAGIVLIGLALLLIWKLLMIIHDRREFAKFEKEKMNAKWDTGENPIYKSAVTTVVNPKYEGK

adhesion inhibition (MKN45 cells, matrigel adhesion assay, 6 hours post treatment, 50 ng rCTGF): 50%
adhesion inhibition (MKN45 cells, matrigel adhesion assay, 6 hours post treatment, 100 ng rCTGF): 70%
adhesion inhibition (MKN45 cells, matrigel adhesion assay, 6 hours post treatment, 200 ng rCTGF): 75%
Substance: recombinant CTGF C terminal (CT) domain (from UniProt P29279 253-349) (ligand)
